# Measured values reported in the NTF2 design screens of Basanta et al. (2020).
# Assay: protease stability score; higher = more stable; yeast display proteolysis, trypsin and chymotrypsin;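 also: log10 excess protease needed over predicted unfolded state with 0 meaning unfolded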
row,Sequence,protease stability score
1,DEKHAHKIVRAWSQGDPDQLAELADPNVRLVVGDKTYDGRESFVKWLKDLRKRIDHVRVDSVKINGNKIEIDMRFQVDGVHLVVTVDIEFKNGKIKDVRIQYRDEEQLKDIKKVVR,1.2
2,DEKHAQHAAEIAEQGDPDEWEELADKDVKVDIGDQRVHGREQASSFWRKLREQADTIEYKSYRVDNGRVQLDFVVDINGHRLEFTLRFVVDNGRITEMEVQARDERQNEELKKIDS,0.524
3,DEKHDAKRVWETILNQLRRGDSEEFMKLADKDVKIEYGDKTIHGREDLKSWMNERQKDYDHLDADLTHMDVQGEDVNVTYTDRAKHNGTEHHRTVQAVFRVHNGRLRLQSWYHS,0.494
4,DEKHLERQVDHFLDALHRGDEDEAVNLADPDVEFQVGDRTYHGKEQLKEWLKRLVDRVDHVDIKNITVSGDKVEVHADFSVDGRKETMTFTVRAHNGRIKHMTIDKG,1.27
5,DEKHVKKVVDRVLDALEKKNKDELVKLVKPDVEFHVADTKFEGTDQLHKYYDKVFRKGVEFHVKEVKVEGNKAQVRYDVRAGGHQETVQFEVTVKDERVDRARAEMTEKYKKLVTKG,0.086
6,DEKHYKKVLKRVLDYFMKGNKEQVKKIAKPDVEFHAGKMKIEGTDHLAKYYEKLQRKGVKLEIKEQHVTGDTVEVKYELEVGGTKVTVKATLKVKDDKVDKAEAKNDDDYHKRVKKG,0.117
7,DEKIKQNIEEFLKAVQHGDEERMTQLVDPNAKIVVGNQRVHGMEEYARDIVRKVKEIRIKIDRMHISVQGNKAVITMVYVININGKPVTFRAVYIYEVHDGRVKRVKNNIPEEDQKKVDS,0.733
8,DEKIVQAMKRYMDARQKGDPEDFNNLVDPNVRLNVGDKRVHGRERISEQIQREQRKMRIEIKHVEFRDQGEKVQLRVKYVVEINGRPRHASQRMEASLDDGKIKSIEIRVDEEVKKIEKV,-0.088
9,DEKKAEDAARQMLEALRTGDPKRMVDHMDPNARALVGDTRYHGREEASKMVEHIRRRVDHVRVDNFRVRGNKLHLHAVFDSNGRRERVQIRADVHNGKIKVFEITSQ,0.342
10,DEKKAEELAKKAFKYIENGDREEAQKMLKDNVEYHYANTTYHGKDAAKFVVDVVQKVGVEVKVQEQEVRGNTVRARFQYKNGDTEVETEVEVTYEGDRVKKAEVKLSEEVMKLVHQG,0.566
11,DEKKAEELARTVFEMADKGDKDTLRKIGMPNGEYKYVDKRYEGEQLALILVEQIKKVGAQVKVKRMEVRGDKVQADFDYEYGDKTVRTTARLEYKGDKLLRAEVEVSEEVKKIMTQG,-0.073
12,DEKKAEEMLRRVVKLFRNGDVETVRKMGKDDVEVKYLDETRHGPDAMKKMLEKMKKLGAEVEYKEVHVEGDKATVKVEANIDGTTVRFHVTYQVKDHRVENVKVEYSEKAKKAIKHG,0.754
13,DEKKAEEVATRVLEYIRDGNADDVKKLGKEGGQVQLGDTQLNGVDQLYKYVQDFHKQGIHVEYKEHEAKGDTVTFHTTARRGDAQIEFEVHYVVKGDVVERMEVRQDRKQVKEFKDS,-0.084
14,DEKKAKEAAHRLLEAMVTGDPRKLNENADEDVQVEYGDKSYTGREKLNEWAHEFQKRVDHVRIESIHQRGDTATVKVRVEHNGETDTFVLIVEAHNGRAKRIRQETR,1.11
15,DEKKAKELAETMFKYIQNGDEEKAQKYVDDNVEYKYIDKEYEGKDVVKEVVDKIKKLGVEVKLKRAEVKGDRVTADFEYKHGDNTVRTTVEVQYEGDRVKKARVELTDEARKVIDKG,0.352
16,DEKKALEIAEKVARYVAEGNSDKAKELGKEGVEAKVGDTTVHGPDQLKEYVKKVKDQGNRYEYKETHKEGNTVQFKTEVEKGNAKVEFTAEYQVEGDKLVRAEVRFNKEQQKKFQKS,-0.214
17,DEKKALEVIDRALKYVKNGNKEQVQQMGAPDVEVQNGDARNKGVEEMKKFAERVKKAGNQFEYKEKTTKGNKVKTVVQVTVNGQTIEYEVEVVAEGGKVKHWVVKMDETFKKVVDKS,0.008
18,DEKKALTLAKKAFEVIKKGDKEKAKKLGKPDVKYEYLDKKYTGPEAMEHIVEYVQKLGMEVRVKRNEEKGGTVRVDFDYQRGDQQVRTTAEVEYEGDKLKRFRVEMSEEVKKHITQG,0.093
19,DEKKAQKLMKKAFKMIKDGNEDEVRKLGKPNVKYEYADQQYEGEDAVRVAVQIVKRVGAEDKTETQEVKGDTARAVFVYKKGDTEVQTTAEVIYKGDKMEEARVKLSDEVKKVVHQG,0.124
20,DEKKATKVAKQIQDMMVKGDSDKVEKVGKPNVEFQVGDVKMKGPDELKKYYKKVKDVGNELHVKEAKVEGDTVEVHYDLRHGGTQATVTVRIELKDDKVDRAKVDVDEHYKKIVKKG,-0.068
21,DEKKDREAAQKAARAFVKGNKDKVKELGKEDVTAKFGDEEFRGVDQVTKAMEHWLKMGDQMQLREEKDEKNHVKVRTDQRVGGYEVTTEATYHAQGGRVDHAEDREPPEAQKLMQKG,-0.258
22,DEKKEEQWVRDVKKHAETGNWHDFWRQADPNVRFQVGDTTLRGREEAVKVAEDMRRQVDHQRVEHVDAHNGKVTVDAVLDINGRQQKVEYVVEMHNGRIKRINFSYS,-0.142
23,DEKKERQRAKELVKAMQHGDESKLKELLDENARLNVGDHKFHGMEEAHKTMRELWTRVDHLTVKSVDVTNGKIDIVVVFRHNGKNDRQVLEADVHNGRVRQQQIKSE,-0.14
24,DEKKIKDLARRVMQYYVSGNTEEVEKLGKDDVQVHFGDQTYHGVEQVKKVVKEFKEYGVELQLKDIQYDGDRADAEVEVHAGGHTWKFTVTVQLDGGKVDNLTFHVSDEAKKAIEHG,0.982
25,DEKKIKDLLLKLIEMYVSGNKEEVKKVGKDDVELHAGNQTYHGYEQMAKMAEKLKRYGVKLQITDAKVEGDKLTAKVDFHYGGETQKLEFVVQADGGKVDRMKIELSEEVVKVARKG,0.377

row,Sequence,protease stability score
1,DEKKIKEYVHELNRAFQNGDEDRLNQMMDKNVRAQYGDKEYHGRENAKKVMKDFRDQFDHLEIHSVNVRGDRVDIEAEAHNNGRTEHWIITIRLHNGHMTSIVIRKS,-0.319
2,DEKKIYDLLKKMVEAYVSGNAEEVRKLLKDDGTLDVGDQQYHGVEQVTKAAEEFQKYGVELHLTDYRFDGDRVDVKAVAHLGGNTWEFTVTVQADGGKVDRLVFHVSEEAVKYIQKG,1.28
3,DEKKIYEVLHKAVQMYVSGNDEEVRKLLKKDAEIEVADHKYRGVDEVVKVVDQFRKYGVELQIDDAKFDGNKVNAELTLHAGGETWKFTVTAEADGGKVDKVTFHVTEEVKKRIQKG,-0.045
4,DEKKKAEEQHKKLEHALREGDPDEAKKMMDPNVRAQVGETKFHGREQMAKFWMTFNKRADHVEFELRDLHIENGRIRIHAVVRADVNGQTVRINIRIILTKHGDQFVAVRIEQK,0.499
5,DEKKLEELLRKLFEAAQKNNVDEMRKFLAPDVQYKYGDKRYEGEKVADTAVKVMREVGAEVRVKEEEVKGGEAEATFQYHKGDKTVETTARVRYEGDKVKEVEVKLSEEVKKILEQG,0.128
6,DEKKLEEVAKKVMDAMRKGDSETLVKLGKPDVTFKVADIEFKGQDQLRKYYKLDQDVGVELHLKEEKKEGNKFTMVYDARFGGTQDTVEVEVEVKDEKVDKARAKFTEEYAKHIQKG,0.586
7,DEKKLHELLLKMVQYYVSGHTEKVKEMGKDDVNLNAGDYTYHGVEQVATVADRMRQYGVKLEVKNRRQEGDRLEVEVEFHVGGQTVTVTFKVKADGGKVDEMRIDFSEEADKMARKG,-0.157
8,DEKKLKDKAETLVENFKTGNEEEFSRMADENATLVVGDKTLRGREDLQTFISEFKKTVDHVEVRHVTADNGRVTIDMVVDINGRRVRVHVVIKFKNGHIKDVRVDPRMKRAMDQ,0.905
9,DEKKLKELAEELVKADRTGNPDMIKKLGKPDVEFHVANVTMHGSEQVYKYYEKVQRQGNEVHIKRQEVRGDHVEVHYTVKVGGTEVEVTMRLHAKDHKVDKAEAHFNKEYLDHVKKG,0.413
10,DEKKLLDLARVALEYLQRGNSDQFAKMLDEGGQMNVGDTQINGSDQVKKYVKKFKDQGVHVEYKEQEEKGDTVTVKTEAELGDAKVTFEVHYVAKGDRVERVEVRMNKEQITEFKKS,0.272
11,DEKKLLEIAKEVADYVRNGNADQVAKLGKEGIQANFGDEQVNGPDQMREYVKKVKDLGLHAEYKEEKYEGDTVELHTQAHLGDVTADFTVTYIVKGDKLDKVEVRFNKEQMKKFKTS,0.007
12,DEKKLQELLKKAFEAALNGDEDKLRKLLAPNVKYKYGDTEREGEDAVRLVMQIVKHIGVEVKKQEEEVKGGRMRAVFRYDNGSQTVQTTAEVQYEGDKVKEVRVEITDEIKKVMQRG,1.17
13,DEKKQAEDFFDTWVEIVKSGDEEKAQQMADPNVRFQIGDKSWRGREDFKKFLKTQLKRADHIRFEVQRITVRPNHIEVQFRIVIDNNGQDSRDTLTFVIKVNGDRLRLVEMHEG,1.43
14,DEKKQAKRLHETMDRILTQGNPHEAKHLFDKDARIDVGDKKVHGREQIAKSLAERVRQVDHIHNQVDHVEVDNGQLNMTVRFQQETNGKTHDYSAQHRVDIDGDKVKVVKVTHQ,-0.336
15,DEKKQQELAETFWKIFKTGDEEKLKQMMPQDVRARYGDKSVTGRDRIVTTIKKRVKRADHINVKHISVHNGKIHIDAVIVVDGRKQRDTINIKMRNGHIKNINVDPEKDKQNFS,-0.217
16,DEKKTKELLKEAMKALHNGNEEKVKKLGGPDVEVHAFNYRNRGPEAMVEMARLAQRVGTEFQYREERFEGNRVKTVVEVTVGGDTVRYEVQATVEGGEVKRWEAHVDEKFIEHVEKS,0.174
17,DEKKVEKVVREALKAMINGDKDKVRKLLKPDVQFHAGDVEMHGVDQVVKYYEKIKRQGVEMHIKEVKVTGNEAEVKYDLRADGTEATVKAKVVVENEKVDHVTAELTKTYDDLVKKS,-0.107
18,DEKKVEQAEQWIRNLQTGDPDKANDMFDPNAEITVGDHVVHGREEFKDRMEKDMRNMRIKFEDVHASVKNGRVTVSVDQVDTNNGKPKRYRYNLTIDLRNGKVTEIVNKEDK,0.066
19,DEKKVHEVLKKLRKALEQGNVDEMVKMGKPDVEFHFFDTKIEGLDQLHEYYKTMKDHGAELHVEETKVEGNKVEVVYVLKLGGTQVKVTAQIEIKDERVVRARAENTEEYKKRVKKG,0.359
20,DEKKVKEIAKKAFEYAVKGNEEQLQKLVKPNVDYEYVDEKYEGEDVVKKMVRLLKKVGAEVKIKRYEVKGDTVKADFDYNKGDKTVRTTAEVVYNGDKITQARLELTDEVKKIMHQG,0.681
21,DEKKVKELIDQVVEAIQKGDVEHLLKLGKPDVTFTVGDVEIRGLEHLKKYYKQVKDDGAELHVKKVEVKGNTAQVHYDMKYGGTKATVTVNIEAKDHKVDRAEAKMDKDYLKYVRDG,0.644
22,DEKKVKELLVRAVQAYVNGNTEEVKKLLKEDVQLHAVNHTYHGVEQLLKVVKRMKEYGIKLQVTDHKVDGDKVDVKVQFHAAGETKEVTFRVQADGGKVDKVEVHVTEEVQKLAEKG,1.05
23,DEKKVKELVDTLFDVMRKGDAERFRRYLKPDVRFEFGDITMQGPDQMEKYYRQDQKYGNEMHIKHKEVHGDRAKVTYDVEIKGTRATVEAEVHVRDEKVDEAKAEFDEDYKKYFTKG,-0.121
24,DEKKVKEMVTEAQKAIENNDSDTMAKFLKPDVEFHFGDVKLKGPEDVKKYYDKVRRVGMEAHVKEAEVKGDTAQVVYDVEVKGKRVTITARVQMKDERVDRAEVELDEDYAREVTEG,-0.02
25,DEKKVKKVADKVMRVAANGDNETARKLGKPDVTFEAGSNKMRGVEQVDKYYEKVKRQGNELHIKEVKVEGDRAKVKYDIKIGGTEMTVTAEVYIENDKVEKARIEMDEDYEKKVTKG,-0.338
